# Measurements from patent US20040068761.
# System: FLP recombinase
# Assay: cell_activity
# Settings: excision of y+ donor flanked by FRTs (33,668/33,790 w+ progeny lost y+), with I-SceI co-expressed in Drosophila
substance,measurement,value
FRT (FLP recombination target) from yeast 2 micron plasmid,activity,99.6%
